Data reported in US20160145328A1.

Molecular target: protein A (UniProt P38507)
Test: Heat/Cool phage ELISA: phage-displayed VH, 80 C 10 min then 4 C 10 min, captured on coated protein A; signal as % of untreated sample

Retained binding to protein A (%): 50%
Substance: DP47 VH SY_31/32-DE
